Measurements as given in paper PMC8219380, “The discriminatory power of the T cell receptor” (eLife, 2021).

Tested on: CXCR4
Experiment: Discrimination power from published data: CXCR4
Conditions: ID 21; output Voltage; n 5; ns; ref Guyon 2013
Text: The broad method was to obtain a measure of ligand potency from each study. […] If not explicitly provided, we estimated ligand potency as PX , which was defined by the concentration of ligand that produced X response. To do this, we drew a horizontal line at X on a provided dose-response graph and estimated the ligand concentration where the data intercepted the horizontal line. The disadvantage with this method is that ligand potency was estimated based on the single representative graph provided in the study.
Each study often contained or cited a study that contained estimates of KD or koff for the specific TCR/pMHC interactions used in the study. We only included studies where monomeric SPR binding data was available to avoid multimeric binding parameters (e.g. when using tetramers). However, when analysing discrimination by other non-TCR receptors, we included binding data from various methods (e.g. SPR, radio labelled ligands) provided they were monomeric measurements. The use of SPR is important for weak interactions, such as TCR/pMHC, but various methods are available for higher-affinity interactions.
The plot of potency over KD or k off was fit using linear regression on log-transformed axes. We reported the slope of the fit (i.e. the discrimination power, α), the goodness-of-fit measure ( R^2 ), and the p-value for the null hypothesis that the slope is zero (i.e. α=0 ). […]

B1: CXCR4: receptor tested with Baclofen and other GABA ligands (protein, UniProt P61073 1-352, looked up)
C-X-C chemokine receptor type …: MEGISIYTSDNYTEEMGSGDYDSMKEPCFREENANFNKIFLPTIYSIIFLTGIVGNGLVILVMGYQKKLRSMTDKYRLHLSVADLLFVITLPFWAVDAVANWYFGNFLCKAVHVIYTVNLYSSVLILAFISLDRYLAIVHATNSQRPRKLLAEKVVYVGVWIPALLLTIPDFIFANVSEADDRYICDRFYPNDLWVVVFQFQHIMVGLILPGIVILSCYCIIISKLSHSKGHQKRKALKTTVILILAFFACWLPYYIGISIDSFILLEIIKQGCEFENTVHKWISITEALAFFHCCLNPILYAFLGAKFKTSAQHALTSVSRGSSLKILSKGKRGGHSSVSTESESSSFHSS
With B1 the “Power (discrimination power)” value was 0.5686.
